These results are taken from patent US20210269545A1 (published 2021).

Changes are numbered by the printed parent chain.

Assay [1] addresses T1, CD38 (human, UniProt P28907 43-300, limits assumed).
T1 construct: Soluble antigen of the bio-layer interferometry experiments; also called Cluster of Differentiation 38; CD38 antigen (Octet)
The assay is described as follows: BLI (Octet Red), antibody on anti-hIgG Fc (AHC) sensor, 1:1 model.

Assay [2] deals with T1, CD38. Description: BLI (Octet Red), antibody on anti-hIgG Fc (AHC) sensor. A general note: In BLI a coated tip is dipped into the sample, and binding shifts an interference pattern.
Procedure: Binding experiments were performed on Octet Red at 25° C. The antibodies were loaded onto anti-hIgG Fc Capture (AHC) biosensors for 300 seconds. The ligand-loaded sensors were dipped into a two-fold series dilution (starting at 300 nM) of the antigens (CD19 and CD38) for 240 seconds of CD19 and 150 seconds of CD38 for association followed by dissociation for 600 seconds of CD19 and 130 seconds of CD38. Kinetic constants were calculated using a monovalent (1:1) binding model.

B1: BS1M-4 (bispecific antibody)
heavy 1: QVQLVQSGAEVKKPGSSVKVSCKASGGTFSSYAFSWVRQAPGQGLEWMGRVIPHLGTANSAQKFQGRVTITADKSTSTAYMELSSLRSEDTAVYYCARDDIAALGPFDYWGQGTLVTVSS
heavy 2: not shown
light: not shown
notes: Variant of BS1 in the CDR-H2 of the anti-CD38 arm; not shown: heavy chain constant region of the BS1 format
Usually Kd stands for the free concentration of one partner at which half of the binding sites on the other are occupied at equilibrium, for simple one-to-one binding. Read a high Kd as weaker binding. In the assay with CD38 [1], B1 displayed a Kd of 94.4 nM. This counts as double-digit nanomolar.

B2: BS1M-5 (bispecific antibody)
heavy 1: B1 heavy 1 with I52T
heavy 2: not shown
light: not shown
notes: Variant of BS1; not shown: heavy chain constant region of the BS1 format
Regarding B2, the binding result with CD38 [2] is reported as “no binding”.

B3: BS1M-2 (bispecific antibody)
heavy 1: B1 heavy 1 with I52T, H54F
heavy 2: not shown
light: not shown
notes: as for B2
With B3, the binding result with CD38 [2] is listed as “no binding”.

B4: BS1M-7 (bispecific antibody)
heavy 1: B1 heavy 1 with H54Q
heavy 2: not shown
light: not shown
notes: as for B1
Regarding B4, the affinity in the assay with CD38 [1], expressed as Kd, was 60.5 nM.

B5: BS1M-9 (bispecific antibody)
heavy 1: B1 heavy 1 with H54Q, L55Q
heavy 2: not shown
light: not shown
notes: as for B2
With B5, the binding result with CD38 [2] is “no binding”.

B6: BS1M-8 (bispecific antibody)
heavy 1: B1 heavy 1 with L55Q
heavy 2: not shown
light: not shown
notes: as for B2
Take B6: the binding result with CD38 [2] was “no binding”.
